Test results reported in US20250339531A1 (FRED HUTCHINSON CANCER CENTER, published 2025).

Experiments:
[1] = target: ATP-dependent RNA helicase DDX3X (Homo sapiens, UniProt O00571 2-662); experiment: anti-FLAG co-IP LC-MS, exp 3, +IFNg +Dox
[2] = target: T1, Signal transducer and activator of transcription 1-alpha/beta (Homo sapiens, UniProt P42224 2-750); experiment: anti-FLAG co-IP LC-MS, exp 3, +IFNg +Dox
T1 construct: also called STAT1
T1 sequence (looked up): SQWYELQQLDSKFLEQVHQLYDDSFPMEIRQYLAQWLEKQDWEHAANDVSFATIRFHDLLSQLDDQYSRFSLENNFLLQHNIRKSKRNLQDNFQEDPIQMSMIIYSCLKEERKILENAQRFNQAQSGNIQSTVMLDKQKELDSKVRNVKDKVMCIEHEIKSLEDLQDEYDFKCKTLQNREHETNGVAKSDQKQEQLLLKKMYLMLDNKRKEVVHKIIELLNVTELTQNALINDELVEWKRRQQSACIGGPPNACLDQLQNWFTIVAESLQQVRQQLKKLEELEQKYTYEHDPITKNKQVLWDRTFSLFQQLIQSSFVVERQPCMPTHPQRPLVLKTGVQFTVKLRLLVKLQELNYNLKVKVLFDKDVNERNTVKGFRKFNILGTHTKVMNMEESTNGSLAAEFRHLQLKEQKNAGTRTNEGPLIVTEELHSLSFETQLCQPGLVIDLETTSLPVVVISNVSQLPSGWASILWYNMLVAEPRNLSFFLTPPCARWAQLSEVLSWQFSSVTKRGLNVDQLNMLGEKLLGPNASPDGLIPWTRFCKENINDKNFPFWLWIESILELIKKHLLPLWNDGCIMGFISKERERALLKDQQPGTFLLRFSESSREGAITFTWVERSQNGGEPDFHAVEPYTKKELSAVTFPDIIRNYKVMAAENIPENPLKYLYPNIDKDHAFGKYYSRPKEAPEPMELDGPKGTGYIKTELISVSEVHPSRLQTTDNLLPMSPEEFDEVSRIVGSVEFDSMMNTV

[3] = target: T2, Proteasome subunit alpha type (Homo sapiens); experiment: anti-FLAG co-IP LC-MS, exp 3, +IFNg +Dox
T2 construct: also called PSMA6

Nucleolin = target: T3, Nucleolin (Homo sapiens, UniProt P19338 2-710); experiment: anti-FLAG co-IP LC-MS, exp 3, +IFNg +Dox
T3 construct: also called NCL

[4] = target: T4, Heterogeneous nuclear ribonucleoprotein M (Homo sapiens, UniProt P52272 2-730); experiment: anti-FLAG co-IP LC-MS, exp 3, +IFNg +Dox
T4 construct: also called HNRNPM
T4 sequence (looked up): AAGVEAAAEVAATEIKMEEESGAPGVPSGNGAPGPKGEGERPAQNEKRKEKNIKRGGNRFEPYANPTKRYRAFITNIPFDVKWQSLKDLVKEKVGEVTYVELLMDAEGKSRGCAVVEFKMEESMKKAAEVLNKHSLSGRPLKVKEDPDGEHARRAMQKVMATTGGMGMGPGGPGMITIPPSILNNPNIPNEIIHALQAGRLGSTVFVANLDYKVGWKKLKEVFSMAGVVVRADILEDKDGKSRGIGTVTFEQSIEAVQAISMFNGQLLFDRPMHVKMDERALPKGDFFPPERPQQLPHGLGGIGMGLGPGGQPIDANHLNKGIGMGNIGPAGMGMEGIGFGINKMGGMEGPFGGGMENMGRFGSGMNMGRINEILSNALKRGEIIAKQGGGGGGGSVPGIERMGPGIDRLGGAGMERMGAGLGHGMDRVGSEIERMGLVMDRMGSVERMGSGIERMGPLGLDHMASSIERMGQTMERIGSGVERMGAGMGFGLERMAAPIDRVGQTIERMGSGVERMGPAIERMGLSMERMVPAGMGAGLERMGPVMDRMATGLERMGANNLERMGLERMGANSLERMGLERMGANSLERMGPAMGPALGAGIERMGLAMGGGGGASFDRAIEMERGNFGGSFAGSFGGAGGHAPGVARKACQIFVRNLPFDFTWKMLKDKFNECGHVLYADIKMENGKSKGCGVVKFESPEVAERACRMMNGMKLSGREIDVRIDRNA

[5] = target: T5, Immunoglobulin kappa variable 2-40 (Homo sapiens); experiment: anti-FLAG co-IP LC-MS, exp 3, +IFNg +Dox
T5 construct: also called IGKV2-40

[6] = target: T6, cDNA FLJ56329, highly similar to Myosin light polypeptide 6 (Homo sapiens); experiment: anti-FLAG co-IP LC-MS, exp 3, +IFNg +Dox
T6 construct: also called MYL6

[7] = target: T7, Cyclin-dependent kinase 4 (Homo sapiens, UniProt P11802 2-303); experiment: anti-FLAG co-IP LC-MS, exp 3, +IFNg +Dox
T7 construct: also called CDK4

[8] = target: T8, Heterogeneous nuclear ribonucleoprotein U (Homo sapiens, UniProt Q00839 2-825); experiment: anti-FLAG co-IP LC-MS, exp 3, +IFNg +Dox
T8 construct: also called HNRNPU; HNRPU

[9] = target: T9, Uncharacterized protein (Fragment) (Homo sapiens); experiment: anti-FLAG co-IP LC-MS, exp 3, +IFNg +Dox
T9 construct: also called NA (Homology to TAP2)

[10] = target: T10, Nuclease-sensitive element-binding protein 1 (Fragment) (Homo sapiens, UniProt P67809 2-324); experiment: anti-FLAG co-IP LC-MS, exp 3, +IFNg +Dox
T10 construct: also called YBX1

[11] = target: T11, DNA-dependent protein kinase catalytic subunit (Homo sapiens, UniProt P78527 1-4128); experiment: anti-FLAG co-IP LC-MS, exp 3, +IFNg +Dox
T11 construct: also called PRKDC

[12] = target: T1, Signal transducer and activator of …; experiment: anti-FLAG co-IP LC-MS, exp 4, +Dox +IFNG
[13] = target: T4, Heterogeneous nuclear ribonucleoprotein …; experiment: anti-FLAG co-IP LC-MS, exp 4, +Dox +IFNG
[14] = target: T9, Uncharacterized protein (Fragment); experiment: anti-FLAG co-IP LC-MS, exp 4, +Dox +IFNG
[15] = target: T10, Nuclease-sensitive element-binding …; experiment: anti-FLAG co-IP LC-MS, exp 4, +Dox +IFNG

T10 sequence (P67809 2-324 limits assumed): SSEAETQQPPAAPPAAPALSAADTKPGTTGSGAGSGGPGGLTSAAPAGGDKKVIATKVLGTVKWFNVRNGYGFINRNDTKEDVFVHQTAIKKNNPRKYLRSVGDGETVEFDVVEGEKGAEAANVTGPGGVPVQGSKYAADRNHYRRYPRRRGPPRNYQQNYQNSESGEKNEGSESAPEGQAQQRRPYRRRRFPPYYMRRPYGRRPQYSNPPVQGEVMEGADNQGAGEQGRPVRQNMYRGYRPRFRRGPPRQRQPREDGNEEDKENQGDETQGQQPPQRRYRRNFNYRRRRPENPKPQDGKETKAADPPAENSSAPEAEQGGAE
T3 sequence (P19338 2-710 limits assumed): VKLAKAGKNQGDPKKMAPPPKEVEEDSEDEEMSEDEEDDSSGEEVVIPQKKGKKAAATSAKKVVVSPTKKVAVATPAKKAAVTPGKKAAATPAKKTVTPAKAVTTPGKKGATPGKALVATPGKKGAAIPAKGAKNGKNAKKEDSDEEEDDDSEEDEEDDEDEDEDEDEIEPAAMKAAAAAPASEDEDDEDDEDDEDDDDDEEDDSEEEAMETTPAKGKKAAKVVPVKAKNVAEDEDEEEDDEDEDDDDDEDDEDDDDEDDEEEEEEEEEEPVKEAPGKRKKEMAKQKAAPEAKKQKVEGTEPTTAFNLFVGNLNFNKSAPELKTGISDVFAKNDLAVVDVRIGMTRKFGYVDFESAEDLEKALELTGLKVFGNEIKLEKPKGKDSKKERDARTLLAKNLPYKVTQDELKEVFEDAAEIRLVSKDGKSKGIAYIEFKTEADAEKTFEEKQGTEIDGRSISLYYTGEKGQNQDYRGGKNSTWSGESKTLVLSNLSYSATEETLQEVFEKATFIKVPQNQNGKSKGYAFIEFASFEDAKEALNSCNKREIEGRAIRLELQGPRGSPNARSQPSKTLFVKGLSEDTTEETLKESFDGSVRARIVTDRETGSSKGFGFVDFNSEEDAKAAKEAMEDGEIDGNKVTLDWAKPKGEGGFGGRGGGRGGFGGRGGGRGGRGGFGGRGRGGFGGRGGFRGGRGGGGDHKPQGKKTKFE
T7 sequence (P11802 2-303 limits assumed): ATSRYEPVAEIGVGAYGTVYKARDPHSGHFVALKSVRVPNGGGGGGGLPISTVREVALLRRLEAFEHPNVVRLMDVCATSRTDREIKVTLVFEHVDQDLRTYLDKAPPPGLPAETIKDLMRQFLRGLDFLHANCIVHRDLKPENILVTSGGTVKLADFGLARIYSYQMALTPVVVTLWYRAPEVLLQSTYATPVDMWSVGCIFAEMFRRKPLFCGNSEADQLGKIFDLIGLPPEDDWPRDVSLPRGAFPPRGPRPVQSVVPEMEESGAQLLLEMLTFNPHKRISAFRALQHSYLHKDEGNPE
Sequence of ATP-dependent RNA helicase DDX3X (O00571 2-662 limits assumed): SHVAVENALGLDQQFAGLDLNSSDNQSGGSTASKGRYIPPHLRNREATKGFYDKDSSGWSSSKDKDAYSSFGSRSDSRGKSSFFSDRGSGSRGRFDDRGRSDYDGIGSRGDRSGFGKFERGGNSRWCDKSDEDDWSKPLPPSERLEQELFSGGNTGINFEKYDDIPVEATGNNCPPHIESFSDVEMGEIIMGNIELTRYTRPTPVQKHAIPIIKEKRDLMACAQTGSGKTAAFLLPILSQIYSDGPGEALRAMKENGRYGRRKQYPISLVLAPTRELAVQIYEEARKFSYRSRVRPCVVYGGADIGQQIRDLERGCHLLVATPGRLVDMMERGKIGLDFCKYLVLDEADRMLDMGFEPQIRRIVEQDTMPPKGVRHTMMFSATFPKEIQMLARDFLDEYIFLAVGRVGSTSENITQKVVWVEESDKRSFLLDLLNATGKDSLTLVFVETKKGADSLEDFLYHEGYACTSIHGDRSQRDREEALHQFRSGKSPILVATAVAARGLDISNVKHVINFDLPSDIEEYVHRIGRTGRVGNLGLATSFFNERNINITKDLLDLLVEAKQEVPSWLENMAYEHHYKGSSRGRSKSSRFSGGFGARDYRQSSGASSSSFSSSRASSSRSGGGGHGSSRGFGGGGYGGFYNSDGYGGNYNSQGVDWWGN
T8 sequence (Q00839 2-825 limits assumed): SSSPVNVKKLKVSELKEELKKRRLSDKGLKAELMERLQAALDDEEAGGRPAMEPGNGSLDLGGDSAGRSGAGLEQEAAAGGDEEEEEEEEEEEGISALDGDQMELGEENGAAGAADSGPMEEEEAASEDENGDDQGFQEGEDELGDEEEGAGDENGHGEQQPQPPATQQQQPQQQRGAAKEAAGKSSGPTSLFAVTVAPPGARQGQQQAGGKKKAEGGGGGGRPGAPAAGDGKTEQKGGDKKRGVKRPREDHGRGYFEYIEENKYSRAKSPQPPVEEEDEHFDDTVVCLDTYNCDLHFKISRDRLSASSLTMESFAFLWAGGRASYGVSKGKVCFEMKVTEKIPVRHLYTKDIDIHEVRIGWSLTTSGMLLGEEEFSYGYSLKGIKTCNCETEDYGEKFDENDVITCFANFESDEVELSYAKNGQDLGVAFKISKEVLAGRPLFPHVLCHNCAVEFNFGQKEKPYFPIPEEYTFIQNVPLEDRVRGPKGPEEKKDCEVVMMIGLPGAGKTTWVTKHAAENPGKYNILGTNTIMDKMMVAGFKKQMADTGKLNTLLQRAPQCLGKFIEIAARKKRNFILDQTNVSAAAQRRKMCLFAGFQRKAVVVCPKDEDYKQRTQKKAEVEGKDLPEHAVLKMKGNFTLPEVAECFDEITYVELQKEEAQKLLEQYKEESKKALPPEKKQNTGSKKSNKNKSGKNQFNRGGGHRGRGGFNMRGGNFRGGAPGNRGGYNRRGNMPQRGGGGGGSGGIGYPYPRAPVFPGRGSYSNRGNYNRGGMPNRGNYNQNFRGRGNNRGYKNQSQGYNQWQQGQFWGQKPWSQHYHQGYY
T5 sequence (A0A087WW87 20-121): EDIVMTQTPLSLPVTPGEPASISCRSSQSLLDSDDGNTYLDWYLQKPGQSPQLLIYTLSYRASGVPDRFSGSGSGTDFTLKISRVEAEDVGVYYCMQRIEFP

B1: i3XFLAG-NLS-CTDaa154-424 (other)
chain: MDYKDHDGDYKDHDIDYKDDDDKPPKRMRREPKKKRKVGRAPAQAGGLCSAAPGGGHPAPSWVAFAHTGAWGTGLPAPHVPCAPGALPQGAFVSQAARAAPALQPSQAAPAEGISQPAPARGDFAYAAPAPPDGALSHPQAPRWPPHPGKSREDRDPQRDGLPGPCAVAQPGPAQAGPQGQGVLAPPTSQGSPWWGWGRGPQVAGAAWEPQAGAAPPPQPAPPDASASARQGQMQGIPAPSQALQEPAPWSALPCGLLLDELLASPEFLQQAQPLLETEAPGELEASEEAASLEAPLSEEEYRALLEEL
notes: Doxycycline-induced in MB135 cells for co-IP; also called longCTD; iDUX4-CTD
[1]
  PSMs: 37 PSMs
[2]
  PSMs: 3 PSMs
[3]
  PSMs: 1 PSMs
Nucleolin
  PSMs: 4 PSMs
[4]
  PSMs: 21 PSMs
[5]
  PSMs: 2 PSMs
[6]
  PSMs: 4 PSMs
[7]
  PSMs: 1 PSMs
[8]
  PSMs: 9 PSMs
[9]
  PSMs: 1 PSMs
[10]
  PSMs: 7 PSMs
[11]
  PSMs: 18 PSMs
[12]
  PSMs: 19 PSMs
[13]
  PSMs: 2 PSMs
[14]
  PSMs: 1 PSMs
[15]
  PSMs: 7 PSMs
